According to the supplement of paper PMC9112550, “Optimization of the antimicrobial peptide Bac7 by deep mutational scanning” (BMC Biology, 2022):

Tested on: Escherichia coli TOP10
Experiment: shrunken log2 fold change of peptide-encoding DNA abundance (4.5 h post-induction vs induction); higher = less antimicrobial activity (less host growth inhibition)
Settings: time post-induction: 4.5 h; library: site-saturation at positions 5, 18, 19, 20
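Note: peptides expressed intracellularly from a pBAD plasmid library in pooled LB shake-flask culture, induced with 0.3% L-arabinose, DNA abundance read by NGS, three biological replicates, DESeq2 with apeglm shrinkage.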

Sequence | shrunken log2 fold change
RRIRYRPPRLPRPRPRPFMVPRP | -1.05
RRIRIRPPRLPRPRPRPSLFPRP | -0.66
RRIRVRPPRLPRPRPRPEFLPRP | 0.0805
RRIRRRPPRLPRPRPRPSADPRP | 0.247
RRIRQRPPRLPRPRPRPDFIPRP | -0.345
RRIRGRPPRLPRPRPRPKYKPRP | 0.0104
RRIRMRPPRLPRPRPRPQFIPRP | -0.0965
RRIRCRPPRLPRPRPRPRSSPRP | -0.138
RRIRHRPPRLPRPRPRPTFHPRP | -0.326
RRIRRRPPRLPRPRPRPRKSPRP | 0.339
RRIRWRPPRLPRPRPRPGINPRP | 0.0653
RRIRNRPPRLPRPRPRPKHDPRP | -0.287
RRIRGRPPRLPRPRPRPYAGPRP | -0.0412
RRIRHRPPRLPRPRPRPMNSPRP | -0.214
RRIRRRPPRLPRPRPRPKIKPRP | -0.0183
RRIRFRPPRLPRPRPRPKEEPRP | 0.0372
RRIRVRPPRLPRPRPRPWFCPRP | -0.299
RRIRPRPPRLPRPRPRPNETPRP | 0.0335
RRIRTRPPRLPRPRPRPPWFPRP | 0.0438
RRIRVRPPRLPRPRPRPSMFPRP | -0.245
RRIRARPPRLPRPRPRPSMKPRP | -0.037
RRIRLRPPRLPRPRPRPKRDPRP | 0.43

Sequence | shrunken log2 fold change
RRIRGRPPRLPRPRPRPITMPRP | -0.0891
RRIRYRPPRLPRPRPRPIQRPRP | -0.00865
RRIRTRPPRLPRPRPRPEASPRP | 0.00709
RRIRSRPPRLPRPRPRPFIWPRP | -0.297
RRIRARPPRLPRPRPRPQHNPRP | -0.26
RRIRLRPPRLPRPRPRPQAFPRP | 0.0474
RRIRCRPPRLPRPRPRPVPQPRP | 0.0921
RRIRPRPPRLPRPRPRPKFFPRP | 0.0479
RRIRRRPPRLPRPRPRPIDNPRP | -0.349
RRIRIRPPRLPRPRPRPPRWPRP | 0.514
RRIRHRPPRLPRPRPRPNPPPRP | 0.0899
RRIRDRPPRLPRPRPRPEMQPRP | -0.0247
RRIRNRPPRLPRPRPRPQCTPRP | -0.123
RRIRPRPPRLPRPRPRPNSAPRP | 0.204
RRIRRRPPRLPRPRPRPFIHPRP | -0.18
RRIRRRPPRLPRPRPRPAMRPRP | 0.538
RRIRPRPPRLPRPRPRPLQQPRP | 0.176
RRIRARPPRLPRPRPRPEEEPRP | 0.178
RRIRVRPPRLPRPRPRPHCPPRP | -0.173
RRIRCRPPRLPRPRPRPSGLPRP | 0.0264
RRIRERPPRLPRPRPRPAPEPRP | 0.236
RRIRWRPPRLPRPRPRPLAAPRP | 0.994

Sequence | shrunken log2 fold change
RRIRDRPPRLPRPRPRPATHPRP | 0.335
RRIRARPPRLPRPRPRPWKCPRP | 0.0662
RRIRPRPPRLPRPRPRPGRNPRP | -0.0548
RRIRWRPPRLPRPRPRPYNDPRP | -0.194
RRIRLRPPRLPRPRPRPMVYPRP | -0.0262
RRIRTRPPRLPRPRPRPEIAPRP | -0.11
RRIRHRPPRLPRPRPRPCRTPRP | 0.00884
RRIRFRPPRLPRPRPRPPCLPRP | -0.0576
RRIRSRPPRLPRPRPRPARLPRP | 0.0986
RRIRHRPPRLPRPRPRPEVVPRP | -0.018
RRIRHRPPRLPRPRPRPFNHPRP | -0.372
RRIRIRPPRLPRPRPRPWKNPRP | -0.235
RRIRMRPPRLPRPRPRPVCPPRP | 0.0129
RRIRHRPPRLPRPRPRPFWVPRP | -0.00136
RRIRWRPPRLPRPRPRPVTHPRP | -0.0273
RRIRTRPPRLPRPRPRPQDMPRP | -0.48
RRIRWRPPRLPRPRPRPSMTPRP | 0.178
RRIRFRPPRLPRPRPRPPMHPRP | 0.162
RRIRERPPRLPRPRPRPPIVPRP | -0.302
RRIRDRPPRLPRPRPRPKTPPRP | -0.00153
RRIRCRPPRLPRPRPRPRAIPRP | 0.0982
RRIRKRPPRLPRPRPRPNINPRP | -0.169

Sequence | shrunken log2 fold change
RRIRARPPRLPRPRPRPQIDPRP | 0.427
RRIRNRPPRLPRPRPRPNEEPRP | -0.00613
RRIRRRPPRLPRPRPRPHWIPRP | 0.0716
RRIRWRPPRLPRPRPRPTGDPRP | 0.241
RRIRHRPPRLPRPRPRPSQQPRP | -0.031
RRIRCRPPRLPRPRPRPSDNPRP | -0.66
RRIRQRPPRLPRPRPRPGPYPRP | -0.0528
RRIRHRPPRLPRPRPRPTQDPRP | 1.87
RRIRQRPPRLPRPRPRPSPVPRP | 0.0734
RRIRRRPPRLPRPRPRPQANPRP | 0.118
RRIRNRPPRLPRPRPRPAIVPRP | -0.0426
RRIRKRPPRLPRPRPRPTCVPRP | 0.241
RRIRFRPPRLPRPRPRPRQKPRP | 0.363
RRIRGRPPRLPRPRPRPMTSPRP | 0.445
RRIRYRPPRLPRPRPRPNIHPRP | -0.98
RRIRHRPPRLPRPRPRPVGPPRP | 0.195
RRIRPRPPRLPRPRPRPAADPRP | 0.282
RRIRLRPPRLPRPRPRPHASPRP | -0.046
RRIRDRPPRLPRPRPRPTHPPRP | 0.263
RRIRHRPPRLPRPRPRPEQNPRP | 0.0816
RRIRTRPPRLPRPRPRPYVVPRP | -0.738
RRIRNRPPRLPRPRPRPFLTPRP | -0.505

Sequence | shrunken log2 fold change
RRIRWRPPRLPRPRPRPSIFPRP | -0.396
RRIRVRPPRLPRPRPRPWNWPRP | -0.00795
RRIRSRPPRLPRPRPRPARKPRP | 0.213
RRIRDRPPRLPRPRPRPCTMPRP | -0.0909
RRIRWRPPRLPRPRPRPLLGPRP | 0.875
RRIRYRPPRLPRPRPRPYYVPRP | 0.0372
RRIRMRPPRLPRPRPRPHFQPRP | 0.22
RRIRVRPPRLPRPRPRPWKAPRP | 0.0634
RRIRRRPPRLPRPRPRPICPPRP | -0.0986
RRIRKRPPRLPRPRPRPRSDPRP | 0.197
RRIRMRPPRLPRPRPRPQTHPRP | 0.318
RRIRKRPPRLPRPRPRPAYGPRP | 0.397
RRIRLRPPRLPRPRPRPLPAPRP | 0.585
RRIRSRPPRLPRPRPRPTYHPRP | -0.492
RRIRQRPPRLPRPRPRPYPWPRP | -0.266
RRIRQRPPRLPRPRPRPDVMPRP | 0.0589
RRIRWRPPRLPRPRPRPDPDPRP | 0.545
RRIRSRPPRLPRPRPRPYSRPRP | -0.00979
RRIRLRPPRLPRPRPRPKRTPRP | 0.21
RRIRDRPPRLPRPRPRPVRDPRP | 0.203
RRIRIRPPRLPRPRPRPFVLPRP | -0.113
